Data reported in the supplement of paper PMC9732359.
± gives the uncertainty stated by the source.

Test: protein stability index of a GFP-peptide fusion (yeast GPS) (PSI 1-4); higher = more stable; sorted into four equal gates, so the index is relative within each strain
Outline: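 The protein stability index of a peptide was calculated by multiplying its read frequency in each gate by that gate's number and adding the products. The peptides were tiled 17-residue stretches of yeast proteins, fused downstream of GFP on a Cherry-expressing plasmid and carried in yeast as a pooled library. Mid-log cultures in leucine-free medium were sorted into four equal gates by GFP/Cherry ratio, and each gate's plasmids were PCR-amplified and Illumina-sequenced.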

Sequence | protein stability index (doa10∆) | protein stability index (pdr5∆) | protein stability index (san1∆) | protein stability index (ubr1∆)
NKEKSNSPTSFFDGSAS [YOR098C/NUP1] | 3.1 ± 0.068 | 3.07 ± 0.057 | 3.02 ± 0.041 | 2.95 ± 0.081
NKFHKSIREDILECDLL [SIR2] | 2.73 ± 0.058 | 2.91 ± 0.066 | 3 ± 0.049 | 3.08 ± 0.06
NKFMSIFLKRKDFTNKN [SRB8] | 2.38 ± 0.067 | 2.2 ± 0.082 | 3.03 ± 0.058 | 2.58 ± 0.065
NKIMTNQINSFWSLHSS [NUT1] | 1.91 ± 0.2 | 2.23 ± 0.15 | 2.06 ± 0.11 | 3.31 ± 0.1
NKKGRGHVKPVRCVNCS [RPS26A] | 3.18 ± 0.065 | 2.98 ± 0.077 | 2.98 ± 0.085 | 3.02 ± 0.076
NKQYELFMKSLIENCKK [SWI1] | 2.58 ± 0.053 | 2.85 ± 0.061 | 2.77 ± 0.046 | 2.66 ± 0.036
NKQYHQANSNLTLLERK [NUT1] | 2.34 ± 0.054 | 2.77 ± 0.055 | 2.59 ± 0.082 | 2.83 ± 0.066
NKRWKVDIGGKQHAVLM [RRP4] | 2.87 ± 0.064 | 3.25 ± 0.067 | 3.18 ± 0.05 | 3.2 ± 0.037
NKTSNNNNVTAVPAATP [SWI1] | 2.84 ± 0.044 | 3.06 ± 0.046 | 2.81 ± 0.032 | 3.07 ± 0.042
NLAIVELVRLLIIDEIH [BRR2] | 2.58 ± 0.069 | 2.38 ± 0.08 | 2.85 ± 0.088 | 2.36 ± 0.062
NLAPKLRNVFLGKCSRI [GRR1] | 2.7 ± 0.048 | 2.43 ± 0.049 | 2.58 ± 0.041 | 2.29 ± 0.049
NLDSSITQDGKFAYKID [YMR129W/POM152] | 2.38 ± 0.065 | 2.69 ± 0.064 | 2.26 ± 0.08 | 2.71 ± 0.05
NLEPLIAKLVAVLNVSP [NUT1] | 1.47 ± 0.064 | 1.38 ± 0.066 | 1.69 ± 0.14 | 1.43 ± 0.057
NLERLRSDLQSKIQEIE [YIL149C/MLP2] | 3.08 ± 0.077 | 3.37 ± 0.076 | 3.49 ± 0.073 | 3.33 ± 0.1
NLFSSTGFKGLLIELQA [SRB2] | 2.6 ± 0.12 | 2.87 ± 0.069 | 2.92 ± 0.058 | 2.94 ± 0.042
NLGEYESAVKYALAAKD [RPN2] | 2.42 ± 0.15 | 2.65 ± 0.09 | 2.7 ± 0.09 | 2.8 ± 0.054
NLGYCNDKLIVDNDNWV [RPN1] | 2.37 ± 0.1 | 2.79 ± 0.18 | 2.32 ± 0.2 | 
NLHALSMSLQSKNLGEI [SWI1] | 2.57 ± 0.058 | 2.61 ± 0.077 | 2.04 ± 0.17 | 2.66 ± 0.068
NLIIFLYKFNGWSLVGR [YML103C/NUP188] | 1.59 ± 0.069 | 2.22 ± 0.11 | 2.52 ± 0.2 | 2.68 ± 0.11
NLKDLNNVKQMVMAGSK [RPO21] | 1.81 ± 0.12 | 1.95 ± 0.12 |  | 1.92 ± 0.077

Sequence | protein stability index (doa10∆) | protein stability index (pdr5∆) | protein stability index (san1∆) | protein stability index (ubr1∆)
NLKEYNKFMSIFLKRKD [SRB8] | 1.64 ± 0.06 | 2.22 ± 0.12 | 2.83 ± 0.078 | 1.88 ± 0.096
NLLPKKSAKATKASQEL [HTA1] | 2.93 ± 0.1 | 3.09 ± 0.12 | 3.17 ± 0.069 | 3.03 ± 0.088
NLPKDKSGIPEFTPADP [SSN2] | 2.99 ± 0.091 | 3.12 ± 0.075 | 3.03 ± 0.076 | 3.47 ± 0.056
NLRTQVTQQKRSLDENR [SMC1] | 3.24 ± 0.12 | 3.09 ± 0.066 | 2.91 ± 0.092 | 3.07 ± 0.086
NLSQENDNEGKHISASI [YAR002W/NUP60] | 3.04 ± 0.075 | 3.34 ± 0.06 | 3.13 ± 0.054 | 3.12 ± 0.044
NLTIHFGGEKGKRIREN [FAS1] | 3.39 ± 0.1 | 3.01 ± 0.18 | 3.05 ± 0.092 | 3.31 ± 0.075
NLWKNIFLSKENSAVAA [COR1] | 1.85 ± 0.053 | 2.24 ± 0.059 | 2.01 ± 0.13 | 1.61 ± 0.063
NMEKEKDRIIDERTKEF [YIL149C/MLP2] | 3.11 ± 0.078 | 2.93 ± 0.11 | 3.1 ± 0.074 | 3.16 ± 0.058
NMLICAPTGSGKTNIAL [BRR2] | 2.55 ± 0.079 | 3.12 ± 0.08 | 2.12 ± 0.091 | 2.98 ± 0.053
NMYTSTQKTELEIDNKD [SIR4] | 3.04 ± 0.069 | 3.01 ± 0.081 | 3.04 ± 0.068 | 3.06 ± 0.065
NNAHSSDLGTVVFDSNE [YMR153W/NUP53] | 2.56 ± 0.16 | 2.46 ± 0.093 | 2.24 ± 0.1 | 1.85 ± 0.082
NNDVFTIGPYRARKDRM [SSN3] | 3.67 ± 0.27 | 3.11 ± 0.26 | 3.43 ± 0.14 | 3.32 ± 0.13
NNFIVERVQSDENKDDE [SRP68] | 3.52 ± 0.16 | 3.35 ± 0.1 | 2.77 ± 0.23 | 3.04 ± 0.098
NNGLPMKNKAETTTEED [ITC1] | 2.35 ± 0.29 | 3.18 ± 0.1 | 2.94 ± 0.092 | 3.03 ± 0.12
NNGSSDKSLDSSNASFN [MED1] | 2.92 ± 0.13 | 3.04 ± 0.15 | 3.08 ± 0.22 | 2.98 ± 0.12
NNIFKEFTSKIGFTIKE [SMC1] | 2.34 ± 0.054 | 2.69 ± 0.063 | 2.76 ± 0.1 | 2.7 ± 0.046
NNIIRIQQLISQFLKRV [SNF11] | 2.1 ± 0.039 | 2.14 ± 0.057 | 2.13 ± 0.065 | 2.3 ± 0.045
NNKITQLIAKNVANVSG [SIR3] | 1.7 ± 0.067 | 1.88 ± 0.063 | 2.07 ± 0.094 | 2.35 ± 0.054
NNNEDNENNNNSSEKNN [MED2] | 3.11 ± 0.052 | 3.37 ± 0.043 | 3.2 ± 0.039 | 3.15 ± 0.048
